Test results taken from patent US11357830B2, “Nano-scale delivery device and uses thereof” (The Regents of the University of California, priority 2016, dated 2022).

System: Proteinase-K
Test: Proteinase-K protection test of Beta Lactamase (BLA) preparations, Nitrocefin Assay (FIGS. 3B, 3C)
Format: biochemical
Conditions: PK overnight, 0.1 mg/ml in 1x PBS, 37° C.; 250 μg/ml nitrocefin, absorbance 486 nm
Experimental: To verify enzyme encapsulation and activity, three separate preparations were incubated with and without Proteinase-K (PK). […] In this example, the three preparations were exposed to Proteinase-K (Thermo Scientific Pierce Proteinase K) enzyme overnight at a concentration of 0.1 mg/ml in 1× phosphate buffered saline (PBS) solution at 37° C. Enzyme activity assay was done on the samples post incubation with PK using a Nitrocefin Assay (BLA hydrolysis of nitrocefin produces a shift of UV absorption inside the visible light spectrum from intact nitrocefin (˜380 nm) to degraded nitrocefin (˜500 nm) allowing visual detection of BLA activity on a macroscopic level). Each reaction was 100 μl in total and contained 250 μg/ml nitrocefin as substrate. Absorbance was measured at 486 nm.

“Beta Lactamase (BLA) [bare unencapsulated enzyme]” was tested, and the “BLA enzyme activity when exposed to Proteinase-K (PK)” value was “loses all activity”.
